Literature values, collected in publication PMC3161823.

Biological target: Complement factor H (Homo sapiens) (UniProt P08603)
Sequence (P08603 19-1231): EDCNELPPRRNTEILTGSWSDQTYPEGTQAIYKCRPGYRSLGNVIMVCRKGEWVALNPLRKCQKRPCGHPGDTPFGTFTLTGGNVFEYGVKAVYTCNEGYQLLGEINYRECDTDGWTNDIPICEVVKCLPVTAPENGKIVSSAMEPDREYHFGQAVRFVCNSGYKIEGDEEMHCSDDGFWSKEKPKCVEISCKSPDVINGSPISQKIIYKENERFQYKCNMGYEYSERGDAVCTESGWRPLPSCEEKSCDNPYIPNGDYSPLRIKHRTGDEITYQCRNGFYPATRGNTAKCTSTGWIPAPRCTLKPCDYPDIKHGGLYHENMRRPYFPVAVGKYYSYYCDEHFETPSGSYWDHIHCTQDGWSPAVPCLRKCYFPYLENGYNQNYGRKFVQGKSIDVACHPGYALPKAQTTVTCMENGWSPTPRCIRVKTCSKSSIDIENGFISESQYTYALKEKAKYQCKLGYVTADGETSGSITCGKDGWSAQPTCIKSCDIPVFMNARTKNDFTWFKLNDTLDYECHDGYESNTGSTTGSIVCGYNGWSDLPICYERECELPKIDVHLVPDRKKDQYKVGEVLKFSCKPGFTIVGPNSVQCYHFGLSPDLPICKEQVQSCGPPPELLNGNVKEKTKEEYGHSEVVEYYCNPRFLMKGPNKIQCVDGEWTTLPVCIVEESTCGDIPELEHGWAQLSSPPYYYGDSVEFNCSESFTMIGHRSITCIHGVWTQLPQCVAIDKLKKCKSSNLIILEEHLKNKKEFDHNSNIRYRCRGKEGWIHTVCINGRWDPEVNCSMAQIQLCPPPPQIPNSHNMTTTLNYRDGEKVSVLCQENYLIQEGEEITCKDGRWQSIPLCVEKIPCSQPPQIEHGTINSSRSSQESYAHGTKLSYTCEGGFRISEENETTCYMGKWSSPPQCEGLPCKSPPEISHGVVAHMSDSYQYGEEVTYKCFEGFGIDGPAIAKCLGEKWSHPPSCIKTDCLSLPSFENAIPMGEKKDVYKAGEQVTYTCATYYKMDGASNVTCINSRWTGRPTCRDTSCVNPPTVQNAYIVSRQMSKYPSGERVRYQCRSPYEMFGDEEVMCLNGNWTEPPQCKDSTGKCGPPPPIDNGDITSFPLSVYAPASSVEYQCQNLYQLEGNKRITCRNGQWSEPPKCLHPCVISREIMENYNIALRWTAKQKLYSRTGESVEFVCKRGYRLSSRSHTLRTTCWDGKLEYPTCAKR

PTX3, sequence (P26022 18-381): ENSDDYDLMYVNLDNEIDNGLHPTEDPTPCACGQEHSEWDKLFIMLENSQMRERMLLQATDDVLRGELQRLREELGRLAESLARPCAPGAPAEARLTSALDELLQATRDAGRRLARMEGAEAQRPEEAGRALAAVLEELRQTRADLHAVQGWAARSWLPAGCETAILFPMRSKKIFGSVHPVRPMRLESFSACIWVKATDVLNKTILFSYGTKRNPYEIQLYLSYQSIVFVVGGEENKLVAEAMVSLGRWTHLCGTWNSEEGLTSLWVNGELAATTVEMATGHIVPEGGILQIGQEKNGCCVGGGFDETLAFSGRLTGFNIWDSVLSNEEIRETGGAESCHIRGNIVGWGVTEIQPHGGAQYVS

**Q.** With PTX3 (from UniProt P26022) as the substance, how does the Kd read?
**A.** The Kd was 0.11 µM.
